Results as given in patent publication US20100151486A1, “OSTEOPONTIN FUNCTIONAL EPITOPES, MONOCLONAL ANTIBODIES AGAINST THE EPITOPES AND USES THEREOF” (SHANGHAI NATIONAL ENGINEERING RESEARCH CENTER OF A, priority 2007, published 2010).
Entries after “also recorded” stand apart in the source; their conditions may differ.

Experiments:
[1] = system: human vascular endothelial cell (HUVEC); assay: HUVEC proliferation by 3H-TdR incorporation; type: cell-based; settings: M200+1% BSA+OPN+antibody; 24 hours
Method: HUVEC cell proliferation was measured by the ^3H-TdR incorporation method to determine the protective effect of OPN on cell survival and the inhibitory effect of the anti-OPN antibodies on the OPN protection. Each well of a 96-well plate was inoculated with 2×10^4 HUVECs and cultured in a complete medium for 24 hours. The cells were then treated as following for 24 hours: […]
iv. M200+1% BSA+OPN+murine anti-OPN antibody 1A12 v. M200+1% , BSA+OPN+human-murine chimeric anti-OPN antibody c1A12 vi. M200+1% BSA+OPN+humanized anti-OPN antibody h1A12 vii. M200+1% BSA+OPN+irrelevant antibody
24 hours later, 1 uCi/well ^3H-thymidine was added and, after being incubated at 37° C. for 6 hours, washed once with PBS. The plate was treated with ice-cold 10% trichloroacetic acid/H2O at 4° C. for 10 min, and then washed for two times with, ice-cold ddH2O. Cytolysis was conducted by adding into each well 0.1 ml of 0.5 N NaOH, 0.5% SDS at room temperature for 10 min. After adding 0.2 ml of 0.5 N HCl and mixing, the cells were collected using a multiple cell collector.

MDA-MB-435s cells [2] = assay: Microvessel density (MVD) in tumor, CD31 staining; type: in vivo, nude mice; settings: P<0.01
Method: The tissue of the in situ tumor in mouse was isolated, and speed-frozen in liquid nitrogen. 8 um serial sections were made in a constant cold box frozen section machine, and dried for 5 min, before being fixed with acetone at −20° C. for 30 min, and then stained with IHC. Incubation with the rat anti-mouse monoclonal antibody CD31 (working concentration 1:100) was carried out at 4′C overnight. The secondary antibody was goat anti-rat IgG/PE (working concentration 1:100). After Hochest33258 contrast stain, photographs were taken under the fluorescence microscope.
The CD31 protein was mainly expressed on the membrane of the vascular endothelial cells, and was expressed in individual vascular endothelial cells and microvessel, intra-tumor microvessel could be visualized with an anti CD31 antibody (FIG. 16).

MDA-MB-435s cells [3] = assay: Cell invasion assay (Transwell, Matrigel); type: cell-based; settings: antibody 25 μg/ml; in the presence of hOPN; 24 hours
Method: The assay of cell invasion was carried out using the Transwell system (Corning) with the pore size of […]. The basement membrane of the upper chamber was coated with the artificial matrix gel (Matrigel). After being dried in a flame hood, the matrigel was hydrated with DMEM at 37° C. for 1 hour. MDA-MB-435s cells were detached using 0.2% EDTA and suspended in 0.25% BSA/DMEM at the concentration of 5×10^5 cells/ml. 100 μl of the obtained cell suspension as well as the following 25 μg/nil of antibodies were respectively added into the upper chamber of each well: 1A12 (murine anti-human OPN antibody), c1A12 (human-mouse chimeric antibody), h1A12 (humanized antibody), and 23C3 (irrelevant antibody control). To lower chamber, 0.25% of BSA/DMEM (with or without OPN) was added. The system was then incubated in incubator at 37° C. for 24 hours. After that, the cells remaining in the upper chamber was wiped away using a cotton swab, and the cells penetrate through the basement membrane into the lower chamber were washed with PBS, fixed with 1% formaldehyde, and then stained with 0.5% crystal violet. The cells were counted in the field at 200× magnification under a microscope.

HUVECs = assay: Formation of capillary-like structure in HUVECs on matrigel; type: cell-based, human
Method: HUVECs were cultured in the M200 medium containing LCGS to 80% confluence. The matrigel stored at −20° C. was took out the day before experiment and naturally thawed at 4° C. for 3 to 12 hours. To each well of a 96-welt plate was added […] using a pre-cooled pipet with carefully removing the bubbles, wherein the whole procedure was carried on ice. The loaded plate was incubated at 37° C. for 1 hour to gel the matrigel. To each well, 100 μl HUVECs (2×10^4/well) was gently added onto the surface of matrigel. To the treatment groups were further added the anti-hOPN antibodies 1A12, c1A12 and h1A12. The plate was incubated at 37° C. for […], and the formation of the capillary-like structure was observed 6 hours after.

mouse OPN protein = biological target: T1, mouse OPN protein (Mus musculus, UniProt P10923); assay: Western blot of 1A12 against mouse OPN protein; type: binding
T1 construct: made in house; host or cells: Pichia (yeast), culture supernatant
Method: 100 ug human OPN and an equal volume of Freund's adjuvant were emulsified, and injected intraperitoneally into BALB/C mice. Boost was given every two weeks at the same dose. […] The mouse spleen lymphocytes were fused with NS-1 cells using the classic PEG method. 96-well plate coated with 10 μg/ml human OPN was used for repeated screening by ELISA method to obtain hybridoma cell line 1A12 which was capable of stably expressing anti-human OPN antibody. The strain of 1A12 was amplified, and administrated to BALB/C mice in 5×10^6 cells/mouse (i.p.). The ascites was collected from the 10th day after the injection. The anti-human OPN monoclonal antibody was purified by affinity chromatography using protein A column.

MDA-MB-435s cells [4] = assay: Cell adhesion assay on hOPN-coated plate; type: cell-based; settings: antibody 25 μg/ml; plate coated with 10 μg/ml hOPN; 2 hrs
Method: MDA-MB-435s was purchased from the Institute of Cell Biology of Chinese Academy of Sciences (Shanghai, China), and 23C3D3 was used as the irrelevant antibody.
A 96-well plate (Greiner) was coated with 10 μg/ml hOPN (prepared in Example 3) or BSA (SIGMA) at 4° C. overnight, and was then blocked with 1% BSA/PBS at 37° C. for 1 hour to block any non-specific binding sites. The MDA-MB-435s cells were detached using 0.2% EDTA and then re-suspended in 0.25% BSA/DMEM at the concentration of 5×10^5 cells/ml. To each well, 100 μl (5×10^4) MDA-MB-435s cells were added in the presence of various anti-OPN antibodies (25 μg/ml) murine anti-human OPN antibody 1A12, the human-murine chimeric antibody c 1A12 or the humanized antibody h1A12 as treatment groups and the irrelevant antibody 23C3 as control (25 μg/ml). After incubation at 37° C. for 2 hrs, the medium was removed and washed twice with PBS gently. The adherent cells were fixed in 1% formaldehyde at 4° C. for 10 minutes, stained with 0.5% crystal violet after washed with PBS and lysed with 2% Triton X-100 (50 μl). The absorbance was measured at 595 nm.

T1 sequence (P10923 17-294): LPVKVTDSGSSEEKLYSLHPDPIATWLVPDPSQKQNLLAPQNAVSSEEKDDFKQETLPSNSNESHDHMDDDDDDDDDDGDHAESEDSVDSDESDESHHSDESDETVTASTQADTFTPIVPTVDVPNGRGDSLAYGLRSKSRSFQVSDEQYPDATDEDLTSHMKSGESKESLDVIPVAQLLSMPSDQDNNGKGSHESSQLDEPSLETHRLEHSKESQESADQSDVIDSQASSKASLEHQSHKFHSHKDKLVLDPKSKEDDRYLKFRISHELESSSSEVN

cross-reaction with the mouse OPN protein (mouse OPN protein): cross-reacted
B1: 1A12: murine anti-hOPN mAb; VH SEQ ID NO: 4, VL SEQ ID NO: 6; from hybridoma 1A12 (antibody, V domains shown)
VH: QVQLEQSGPELVKPGASVKMSCKSSGYTFTTYVMHWVKQKPGQGLEWIGYINPYNDGSKYNEKFKGKATLTSDKSSNTAYMELSSLTSEDSAVYYCASHYGGSPAYWGQGTLVTVSA
VL: DILMTQTPLSLPVSLGDQASISCRSSQSLVHSNGNTYLHWYLQKPGQSPKLLIYKVSNRFSGVPDRFSGSGSGTDFTLKISRVEAEDLGVYFCSQSTHVPWTFGGGTKLEIKR
modifications: amino acid sequence of the heavy chain variable region in 1A12; amino acid sequence of the light chain variable region in 1A12
notes: murine anti-hOPN mAb; from hybridoma 1A12
3H-TdR incorporation relative to the OPN group [1]: significantly lower
microvessel density (MVD) in tumor versus irrelevant control (MDA-MB-435s cells [2]): significantly less; also recorded: effectively inhibit
blocking of invasion of the basement membrane by MDA-MB-435s (MDA-MB-435s cells [3]): effectively block
potency of forming the capillary-like structure in HUVECs (HUVECs): reduce
blocking of the binding between MDA-MB-435s cells and hOPN (MDA-MB-435s cells [4]): effectively block
